Reference: publication PMC7684303

Biological target: MBS complex (membrane-bound sulfane sulfur reductase), monomeric 13-subunit complex (Pyrococcus furiosus)
Assay: cryo-EM structure; MBS purified in DDM, ~5 mg/ml; grids prepared under aerobic conditions; twofold symmetry applied; overall resolution 4.0 Å

For “MBS complex (membrane-bound sulfane sulfur reductase), monomeric 13-subunit complex”, the stoichiometry N was 2.
